assay: soluble on expression in E. coli; label from the status in PepcDB or PDB records

Sequence | soluble on expression in E. coli
MSLRKVFEESKIGNIKLKNRILRSATHESMADSEGKPTEDLIKKYMELAQGEVGAIITGYTGVMQNGKSPAKNMLMLDKDENITSFKNMVNEIHKYDVPIILQIAHCGRQTSEKVTGKPTVAPSPIRDKIYRGSVPHELTDVAINEIIEAFVNAIERAIKAGFDGVELHLAHGYLLSSFLSPHMNKRKDKWGGSTENRFRIVSEIMKRARQKFKNYPILAKINGYEASKDGIKLEEAIKISKALENSGINAIEVSCGIAEEGFVTIRGKVPFDMILKCDPTMKRIPEFLKPIVKHVGKLIVKSPEPHFLYNLNNAREIKNKVTIPVIVVGGIRKFSDIEDIIAKDCDFVSMSRPFIIQPSIVKTFKEGKEKESRCINCNYCLIGVETNELKCYYGKEGHHHHHH | soluble
MEASRLLLLEDSSVDAELIEDQLSRLSPPPAVTRAVGKASFIEALEKQQFDIILADFSLPDFDGMSALDLVMRTRPDTPFIFVSGILGEDAAIDAFRRGATDYVLKQRLVRLPSAVERALAEAREKQERKRAELHKELLVRELSHRVKNTMAMVVSIIRRTAKGSTSIKDYQERLVARVSALAESHALLFQSNWGETNLRDVVKRAIEPHNTFASRVELEGPDGVHVSPKSALALGMILHELATNAQKYGSLSGANGKVEVFWKKILNGDGNDCIDLRWQESGGPPVSVPQDTGFGTTLITRGVQYELQAESEIRYDPDGLQYRVIFPLD | not soluble
MNNSKTNQQMNTSMGYPLTVYDECNKFQLIVPTLDANIMLWCIGQLSLLNDSNGCKHLFWQPNDKSNVRILLNNYDYGHLFKYLQCQRKCSVYIGEGTLKKYNLTISTSFDNFLDLTPSEEKESLCREDAHEDPVSPKAGSEEEISPNSTSNVVVSRECLDNFMKQLLKLEESLNKLELEQKVTNKEPNHRISGTIDIPEDRSELVNFFTELKTVKQLEDVFQRYHDYERLSQECDSKTEIASDHSKKETKIEVEPPNERSLQITMNQRDNSLYFQLFNNTNSVLAGNCKLKFTDAGDKPTTQIIDMGPHEIGIKEYKEYRYFPYALDLEAGSTIEIENQYGEVIFLGKYGSSPMINLRPPSRLSAESLQASQEPFYSFQIDTLPELDDSSIISTSISLSYDGDDNEKALTWEEL | soluble
MAGDPMWKTDVKLNADKFRKIDVHSHIQVLGYPFNVSITPQEFLSLMEAYNIEVAIISDVDNENIAKIVREYPDKLVGIYWANPRDKNSIKEAEKFLEKFEFRGIKLHPLLNMFSPADPKVEDIMRIAEEFNVHVQVHSGHPPTSLPWQIEELARKFPEVKIVMVHMGHGNAYYIQGAIEVAERNENVYLETSGMPMPSKIAEAYKVAPKRVVFGIDLPCHHPVVEIAKVLTSGLDEKGMERVFYENAKVLLLEHHHHHH | not soluble
MGSDKIHHHHHHACTDGINETVISAYQLPVLPEPSYKFSRNGESSVNVLECGFLKSPIDRIFSEYMNEARMSTKRDYDEALRIYHEGNFGLKPQKEVSASSKHLKDRDKILKDIDAWFETSARIAGLGANIPSYEHRNREAVKGLTGYVGNGIGDKDICYVDERGIAVAEVYKYAIMGAIYLDKILNIHLSEQILENNEVLVRNDLTQLLPGHNYTELEHHWDLAYGYYDFWKTLAQSDGLPALKDCHLRISRSFVKGRALMTTSQYDEMRLQADTIRQELSRVVAVRAMHLLVGPNTLANLKENPRRAFRLLSQAYGLIYAAQFARNMEGKSFLTNEETGILLHELEKGDGLWDKERLLGREQTEGALYNLAVRIGEKFDVSPEDIKK | not soluble
LKEDKEKYPIFVFIHKDKVTISIDTTGDALHKRGYREKANKAPIRETLAAGLIYLTPWKAGRVLVDPMCGSGTILIEAAMIGINMAPGLNREFISEKWRTLDKKIWWDVRKDAFNKIDNESKFKIYGYDIDEESIDIARENAEIAGVDEYIEFNVGDATQFKSEDEFGFIITNPPYGERLEDKDSVKQLYKELGYAFRKLKNWSYYLITSYEDFEYEFGQKADKKRKLYNGMLKTNFFQYPGPKPPRNNK | not soluble
MMGTAWPPPELADVFAQQDIWSAWYAGTPEGLTDAYLNAPNDRPAARRKGLLARLGRWFWGQPTPMGERPSKLHVPLAGAIAAVSANLLFGAPLNLTVDDAATQERLDQLADDTTYAVLREAAEMSAALGGVYLRVVWDQSIQDKPWLVAASPDIAVPEWKWGRLSAVTFWNVIREDANTVVRQLERHEPGWIRHSVWIGSANELGVQMALTDFPETAGLADLVIDGDGIPTGTPKLTAQYIPNLKPNKLWRHLPAAANLGRSDFSGVEALMDALDEAYSDWMRDLRTGKARLLVGTEVLENLGKGQGAHFDIDRELFAPLNLEPGEDKGSVIEQVQFNIRTEEHRALCADLAERIILGAGYSLQTFGVTSEGSGNPTATEIAARERQSLTTRANKTSYWRPALAHLFGVLLEIDRTVFRSQVVPQIPDVEFPDVVTPDPGETARQLNDLNTAGAISTYEKVRRLNPDWRDEQVLEEVARIKADQAEAKPQPTHPARAQEPAGQPEKSPEGSQVNEDVSEPLVAR | not soluble
MDGFDASPKAIAARRAKVFDPVGGYEYFVNTYFPHYIRSPEKSELHAFLFSRLPEIIRSPKGENEAVGAPRGEGKSTKVTQLFTLWCIVTGQKHYAVIVMDSIDQAYPMLEAIKAELEFNPRLKTDFPEVCGQGRVWQAGTIVTANDVKVQVAGSGKKLRGLRHGPYRPDLTVLDDIENDEQVRNPEQRDKLNAWLTKTVLPLGGVGQKYDVIYIGTILHYDSVLNRTLNNPFWHGIKFKAMKRWPDRMDLWDRWEELFRNDGETVAEAFYQANKDEMERGAVTSWAARGVLALMKIRARDGHATFDSEYQNDPVSGEDAPFAKSMKFWNDLPSDLVYFGALDPSLGKAGASRDPSAIIIGGYQRVTGKLYVVEAQIKKRLPDLIIEDVIRLHRQYRCKLWFVETVQFQEFLKDELVKRSAARGIPVPARAVKPVSDKLLRIETLQPHMANGLILLNESQQTLIQQFRHFPKADHDDGPDAVHMLWSGAVANCVPIEWQSPTDNDFDDEIKSKWSR | not soluble
FQVPMSNLLTVHQNLPALPVDATSDEVRKNLMDMFRDRQAFSEHTWKMLLSVCRSWAAWCKLNNRKWFPAEPEDVRDYLLYLQARGLAVKTIQQHLGQLNMLHRRSGLPRPSDSNAVSLVMRRIRKENVDAGERAKQALAFERTDFDQVRSLMENSDRCQDIRNLAFLGIAYNTLLRIAEIARIRVKDISRTDGGRMLIHIGRTKTLVSTAGVEKALSLGVTKLVERWISVSGVADDPNNYLFCRVRKNGVAAPSATSQLSTRALEGIFEATHRLIYGAKDDSGQRYLAWSGHSARVGAARDMARAGVSIPEIMQAGGWTNVNIVMNYIRNLDSETGAMVRLLEDGD | soluble
EGQEKFKDLTYIAASVCNTEHAFITLLNKDNLVFLSSFKPPLAEITRDLSFCEITIQSDTVHEVQDARVHERFSNNPYVIGEPYLRYYCGAPLIDENGYKLGALCVLDTNPRTLTENQKKSLVLLAKQV | not soluble
EEALIKIKQQEIVKNLPANAALVQLKYAGKTTDEPILNNLYKKYQVTANILYGNIEILEKTPVGEMIVILEGAATNIDQALNDLTHSDLTVTVLKRGV | not soluble
MPIEIITDSGADLPQSYIREHRIAFLPLVVHWNGQDYKDGITIEPKQVYDAMRQGHTVKTAQPSPLAMKELFLPYAKENRPCLYIAFSSKLSGTYQTAMAVRSELLDEYPEFRLTIIDSKCASLGQGLAVMKAVELAKQNTPYNLLCETIESYCRHMEHIFTVDNLDYLARGGRISKTAAAFGGLLNIKPLLHVEDGALIPLEKWRGRKKVLKRMVELMGERGDDLQKQTIGISHADDEETALELKQMIEETHGCTRFFLSDIGSAIGAHAGPGTIALFFLNKYIEI | soluble
MGSDKIHHHHHHMSSSAKPLPTIERPREDASGRARVPGWVIGIDLGGTKILAGIARTQEQIIATREEPTLHGEDAPVLAQMARLITSLLSDAGALAQELDNVVIGVPSAVDPQTGLSSLSPNLALPVDRPLADLMSRFVSCPVTVENDVNLAAYGEAWAGAGQGLGSLVFVSFGTGVGMGIVLDGEPWRGAAGRAGEIAYLPVGAAPHETAPLSENGLYEDGVGTSGIRQRFTRDGGTVAELFSLARSGNEQARLAIDSVAKQASIGIAAVHALLDPAVTVIGGGIGSQPEFFTLLQAHLQPLLPFESPLKQSRLGVQAGMIGAVALALKNRVPHPEKSNAENL | not soluble
MQALGLIETRGLLPAIECADVMLKTAQVELVGRDFVGGGLVTISVTGDVGAVKAAVEAGAAAVEKISPLLLVSQHVIPRPHQEIEGMIGPSPAAKQAPPVPQPEKVKALPGFDQTTNKQTIDDFVQEFGLEPCVDALKTLPVLKLRNLAREYKGLAIAGRAISKANKEDLIQQLKEYYNQKHE | not soluble
MSLSDNIYSVSQLNSAARQMLEGNFCQIWLTGEISNFTQPVSGHWYLTLKDENAQVRCAMFRMKNLRVAFRPQNGMQVLVRANVSLYEPRGDYQLIIDSMHPAGEGLLQQQFEALKMKLAAEGLFAQNLKKTLPHFSKAVGIITSSTGAALQDILHILARRDPSLKVVIYPTAVQGKEATAEIVQMIELANARQEVDVLIVGRGGGSLEDLWCFNEEEVARAIFRSTLPIISAVGHETDVTIADFVADLRAPTPSAAAELVSRNQDELLQQLRHQQQRLDMAFDRLFTRKSQRLKQLALRLQNQHPQNQLRAQQAKNEQLTHRLQLAILRQFENTQQKFTALSVRLKQNPLPYRIQRYQQGLEQLKVRLNFCVNRQVTERQNKLATLCGKLDGLSPLKVLARGYSIAENPQGKAIVSVKDVNQGDFITTQVADGKIVSKVLEGHHHHHH | not soluble
MSLIKVLIVEDDPMVAMLNAHYLEQVGGFELVQAVNSVKSAIEVLEESRIDLVLLDIFMPEETGFELLMYIRNQEKEIDIMMISAVHDMGSIKKALQYGVVDYLIKPFTFERFKEALTIYREKLTFMKEQQKISQSELDSLILQKEKREPTVTKELPKGLTKQTLQLIWQKIELLNGRAFTTDEMSQLVGISRVSIRKYVMFLTDIGVLENEMMYQHVGRPVSKLRCVDQKKIEFYVEGHHHHHH | soluble
IEEVYEATLDAIQGALNCDRASILLFDEAGTMRFVAARGLSEHYQRAVDGHSPWITGANEPEPIFVENVDDAEFSRELKESIVGEGIAALGFFPLVTEGRLIGKFMTYYDRPHRFADSEIGMALTIARQLGFSIQRMRAEYARRQAEE | soluble
MMDKNQLEQEFHKAMLNIYQEALNLPQPYKATRFLQIVNEFGGKEAADKLLSTGEKKTQTGFTELILSGGGVHALKYSMEYLVLQKPWCDLFTEEQLAVARKRLERVGFVFPK | not soluble
MIQTKQIGLQEVLSAAIKRATDEKILVSFVKQIDWMDPLLFYAAGKRISFENRCYFADPAQHVIFAGIGSVFTIATASRKRFQTARDEWDKVKEKAFVQREKYEFGTGPLLFGGFSFDQEKEKTDLWKEFDDTTFSLPTFLLTVKNEKAWLTMNTFVSATDCAETLYNEIVSLEEKIFEESKCALEGSKLTVTSKVEVDPKGWMKAIEKVQDEMKQGNVQKVVLARELKVEMDHHIDSALVLEALRIGQPDCYVFSFDYKGACFLGATPERLIRKEDEKFTSMCLAGSTSHGQSIEESKRNSNALLHDEKNLAEHGYVVNMIRSVLNEHCEFVNIPESPGLLTTKNLIHLYTPVEAKGDASLLTMVEELHPTPALGGTPRLEAMKLIRDVELLDRGLYGAPIGWIDDEGNGEFAVALRCGLLNGEKASLFAGCGIVIDSVPQLEYEETSLKFRPMLGALEELMK | not soluble
MNTKPKTIATSSTLELPKLHFQYDNTTTTFTEEEKLIDLKPTSEANYVKFWYNIVRNTYSQTHTNGSPVKPYLVANIERTIDTRLGEVFLHKKERSEHWASIAWFFNIDVKGKLVEKIIIRMSGIEELILNSGTTQIGENLNLISKSTRIPIEQNLTIDNPQLEVFYIMALWTISLDARAFKADLEDGINSESFSVEVFWKSKQDHNQTTISI | not soluble
